Data taken from patent US20150139990A1 (DAINIPPON SUMITOMO PHARMA, published 2015).

What was measured:
Assay in all cases: ELISA
human CD81 mutant V135A = target: T1, human CD81 mutant V135A (human, UniProt P60033 1-236, limits assumed)
T1 construct: as m30; not shown: C-terminal V5 and 6xHis tags
T1 sequence: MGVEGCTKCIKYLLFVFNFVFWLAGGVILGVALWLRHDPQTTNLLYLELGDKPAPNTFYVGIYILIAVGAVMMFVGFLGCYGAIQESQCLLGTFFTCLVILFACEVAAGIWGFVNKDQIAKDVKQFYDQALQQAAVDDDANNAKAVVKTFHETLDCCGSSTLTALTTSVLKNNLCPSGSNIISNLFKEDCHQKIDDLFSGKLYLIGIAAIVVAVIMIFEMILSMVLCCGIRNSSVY
Method in brief: (§1)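 Human CD81 point mutants in pcDNA-DEST40 with C-terminal V5 and 6×His tags were expressed transiently in CHO cells for 48 hours. Membranes were solubilised with 1% n-octylglucoside and loaded at 5 μg/100 μL/well on Ni-NTA His Sorb plates (3 hours, 4° C). Antibody binding (1 hour, room temperature) was detected with HRP anti-human IgG4, TMB and absorbance at 450 nm. Relative binding affinity is the percentage of wild-type CD81 binding, corrected for V5-tag expression.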

human CD81 mutant G158S = target: T2, human CD81 mutant G158S (human, UniProt P60033 1-236, limits assumed)
T2 construct: as m30; not shown: C-terminal V5 and 6xHis tags
T2 sequence: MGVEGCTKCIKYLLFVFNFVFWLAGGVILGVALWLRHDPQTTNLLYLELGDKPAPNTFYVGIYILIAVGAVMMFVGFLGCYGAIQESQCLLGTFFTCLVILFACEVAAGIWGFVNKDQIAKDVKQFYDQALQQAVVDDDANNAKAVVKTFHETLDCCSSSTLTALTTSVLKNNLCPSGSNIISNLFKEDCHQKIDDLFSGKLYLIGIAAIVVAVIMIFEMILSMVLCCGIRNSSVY
Method in brief: as §1

human CD81 mutant L165A = target: T3, human CD81 mutant L165A (human, UniProt P60033 1-236, limits assumed)
T3 construct: as m30; not shown: C-terminal V5 and 6xHis tags
T3 sequence: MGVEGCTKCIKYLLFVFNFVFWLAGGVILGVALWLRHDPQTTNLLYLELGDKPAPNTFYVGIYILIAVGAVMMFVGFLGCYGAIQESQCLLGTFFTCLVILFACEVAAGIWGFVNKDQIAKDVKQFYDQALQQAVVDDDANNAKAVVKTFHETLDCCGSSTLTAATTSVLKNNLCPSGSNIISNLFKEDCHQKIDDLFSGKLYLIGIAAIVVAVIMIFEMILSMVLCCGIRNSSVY
Method in brief: as §1

human CD81 mutant V169A = target: T4, human CD81 mutant V169A (human, UniProt P60033 1-236, limits assumed)
T4 construct: as m30; not shown: C-terminal V5 and 6xHis tags
T4 sequence: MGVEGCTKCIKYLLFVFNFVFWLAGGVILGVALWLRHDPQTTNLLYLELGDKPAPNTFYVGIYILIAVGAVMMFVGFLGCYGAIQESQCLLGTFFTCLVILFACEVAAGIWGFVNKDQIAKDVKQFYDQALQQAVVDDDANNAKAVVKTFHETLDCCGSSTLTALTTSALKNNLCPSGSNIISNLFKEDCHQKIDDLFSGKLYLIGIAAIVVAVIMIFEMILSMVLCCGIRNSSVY
Method in brief: as §1

human CD81 mutant V135L = target: T5, human CD81 mutant V135L (human, UniProt P60033 1-236, limits assumed)
T5 construct: as m30; not shown: C-terminal V5 and 6xHis tags
T5 sequence: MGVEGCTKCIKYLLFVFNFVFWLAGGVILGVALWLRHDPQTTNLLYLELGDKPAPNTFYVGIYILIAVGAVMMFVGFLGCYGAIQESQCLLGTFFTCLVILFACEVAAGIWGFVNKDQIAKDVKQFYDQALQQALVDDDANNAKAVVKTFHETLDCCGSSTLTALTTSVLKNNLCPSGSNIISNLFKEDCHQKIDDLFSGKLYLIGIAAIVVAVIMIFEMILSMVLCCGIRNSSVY
Method in brief: as §1

human CD81 mutant D137E = target: T6, human CD81 mutant D137E (human, UniProt P60033 1-236, limits assumed)
T6 construct: as m30; not shown: C-terminal V5 and 6xHis tags
T6 sequence: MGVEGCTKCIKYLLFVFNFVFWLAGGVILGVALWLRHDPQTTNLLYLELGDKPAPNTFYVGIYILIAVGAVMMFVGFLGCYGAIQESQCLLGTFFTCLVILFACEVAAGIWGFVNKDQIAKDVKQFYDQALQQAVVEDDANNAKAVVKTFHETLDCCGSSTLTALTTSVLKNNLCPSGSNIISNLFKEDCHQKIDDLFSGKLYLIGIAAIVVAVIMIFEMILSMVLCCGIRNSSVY
Method in brief: as §1

human CD81 mutant G158A = target: T7, human CD81 mutant G158A (human, UniProt P60033 1-236, limits assumed)
T7 construct: as m30; not shown: C-terminal V5 and 6xHis tags
T7 sequence: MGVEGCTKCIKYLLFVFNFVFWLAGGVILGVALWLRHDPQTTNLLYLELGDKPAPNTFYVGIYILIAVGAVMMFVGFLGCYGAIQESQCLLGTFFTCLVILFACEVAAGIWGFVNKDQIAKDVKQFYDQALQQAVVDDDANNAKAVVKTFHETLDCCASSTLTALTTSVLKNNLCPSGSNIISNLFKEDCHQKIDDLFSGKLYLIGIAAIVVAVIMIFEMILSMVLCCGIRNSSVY
Method in brief: as §1

human CD81 mutant S168T = target: T8, human CD81 mutant S168T (human, UniProt P60033 1-236, limits assumed)
T8 construct: as m30; not shown: C-terminal V5 and 6xHis tags
T8 sequence: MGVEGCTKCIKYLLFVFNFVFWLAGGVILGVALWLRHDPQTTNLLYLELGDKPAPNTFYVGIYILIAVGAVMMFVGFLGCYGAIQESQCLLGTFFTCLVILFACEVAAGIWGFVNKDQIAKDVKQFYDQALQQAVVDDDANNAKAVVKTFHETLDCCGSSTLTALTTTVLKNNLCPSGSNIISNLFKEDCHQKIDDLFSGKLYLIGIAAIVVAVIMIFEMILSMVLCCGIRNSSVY
Method in brief: as §1

human CD81 mutant V169L = target: T9, human CD81 mutant V169L (human, UniProt P60033 1-236, limits assumed)
T9 construct: as m30; not shown: C-terminal V5 and 6xHis tags
T9 sequence: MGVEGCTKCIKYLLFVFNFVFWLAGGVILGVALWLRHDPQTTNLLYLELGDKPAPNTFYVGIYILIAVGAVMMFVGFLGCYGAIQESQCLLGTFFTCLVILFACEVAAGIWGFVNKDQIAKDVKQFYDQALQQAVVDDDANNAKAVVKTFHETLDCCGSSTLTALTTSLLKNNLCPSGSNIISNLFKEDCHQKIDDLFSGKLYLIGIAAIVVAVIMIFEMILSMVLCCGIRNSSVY
Method in brief: as §1

Measured: relative binding affinity

B1: 002-A07 IgG4 antibody (antibody)
heavy: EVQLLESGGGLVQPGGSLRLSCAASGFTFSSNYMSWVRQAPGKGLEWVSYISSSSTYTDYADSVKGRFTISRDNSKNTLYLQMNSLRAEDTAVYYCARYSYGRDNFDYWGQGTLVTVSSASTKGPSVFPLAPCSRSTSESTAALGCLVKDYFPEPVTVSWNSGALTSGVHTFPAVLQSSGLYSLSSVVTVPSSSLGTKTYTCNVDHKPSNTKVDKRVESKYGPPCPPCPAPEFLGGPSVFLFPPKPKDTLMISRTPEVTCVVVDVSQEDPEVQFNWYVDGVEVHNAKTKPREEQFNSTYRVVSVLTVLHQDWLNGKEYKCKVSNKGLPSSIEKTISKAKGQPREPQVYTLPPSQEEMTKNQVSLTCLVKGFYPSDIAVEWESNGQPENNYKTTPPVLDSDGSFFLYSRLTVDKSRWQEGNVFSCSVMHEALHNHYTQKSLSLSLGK
light: QSVLTQPPSASGTPGQRVTISCTGSTSNIGAGYDTHWYQQLPGTAPKLLIYGNSNRPSGVPDRFSGSKSGTSASLAISGLRSEDEADYYCQSYDTNLSVWVFGGGTKLTVLGQPKAAPSVTLFPPSSEELQANKATLVCLISDFYPGAVTVAWKADSSPVKAGVETTTPSKQSNNKYAASSYLSLTPEQWKSHRSYSCQVTHEGSTVEKTVAPTECS
notes: human IgG4 S228P, lambda light chain
< 20%: all assays above
